Assay results taken from paper PMC3816256, “Sgol2 provides a regulatory platform that coordinates essential cell cycle processes during meiosis I in oocytes” (eLife, 2013).
Residue numbers refer to the chain shown, from its start. In names and notes the source's numbering stands.

B1: MBP-Sgol2cc-Flag, wild type (mouse Sgol2 coiled coil region 31-117) (domain or fragment, UniProt Q7TSY8 31-117, looked up)
chain: SLASKIKAKILNNSSIFKISLKHNNRALARALSKEKENSRRITTEKMQLQKEVEKLNFENTFLRLKLNTLNKKLVEIESHVSNDLLT
notes: In the dimerization assays the second copy (bait) carried a His tag in place of Flag (MBP-Sgol2cc-His, pET28b backbone; Flag copy in pMAL-c2x); also called MBP-mSgol2cc-Flag; MBP-Sgol2cc-His; source: also His- and Flag-tagged copies co-expressed, in extract; not shown: MBP, N-terminal, kept; Flag, C-terminal, kept
B2: MBP-Sgol2cc-Flag L51A/N54A/R56A (3A) (domain or fragment, mouse, UniProt Q7TSY8 31-117, looked up)
chain: B1 chain with L21A, N24A, R26A
notes: In the dimerization assays the second copy (bait) carried a His tag in place of Flag and the same substitutions; also called 3A triple mutation; 3A mutant; source: also His- and Flag-tagged copies co-expressed, in extract; not shown: MBP, N-terminal, kept; Flag, C-terminal, kept
B3: MBP-Sgol2cc-Flag N54A (domain or fragment, mouse, UniProt Q7TSY8 31-117, looked up)
chain: B1 chain with N24A
notes: In the dimerization assay the second copy (bait) carried a His tag in place of Flag and the same substitution; not shown: MBP, N-terminal, kept; Flag, C-terminal, kept
B4: MBP-Sgol2cc-Flag N55I (domain or fragment, mouse, UniProt Q7TSY8 31-117, looked up)
chain: B1 chain with N25I
notes: as for B3
B5: MBP-Sgol2cc-Flag R56A (domain or fragment, mouse, UniProt Q7TSY8 31-117, looked up)
chain: B1 chain with R26A
notes: as for B3
B6: MBP-Sgol2cc-Flag E82K (domain or fragment, mouse, UniProt Q7TSY8 31-117, looked up)
chain: B1 chain with E52K
notes: as for B3
B7: MBP-Sgol2cc-Flag E82A (domain or fragment, mouse, UniProt Q7TSY8 31-117, looked up)
chain: B1 chain with E52A
notes: as for B3
B8: MBP-Sgol2cc-Flag L51A (domain or fragment, mouse, UniProt Q7TSY8 31-117, looked up)
chain: B1 chain with L21A
notes: as for B3

What was measured:
[1] = molecular target: the molecule itself; test: pull-down; purified Flag-tagged MBP-Sgol2cc (31-117) pulled down by purified His-tagged MBP-Sgol2cc (31-117) with the same substitution; western blots
[2] = molecular target: the molecule itself; test: pull-down; MBP-Sgol2cc-His and MBP-Sgol2cc-Flag co-expressed in E. coli; 10 mg of extract on Talon beads 2 hr at 4°C (50 mM sodium phosphate pH 7, 250 mM NaCl, 10% glycerol, 0.02% Triton X-100), washes with 23 mM imidazole; blots with anti-Flag and anti-His; the paper calls it co-immunoprecipitation

| Protein | binding result [1] | binding result [2] |
| --- | --- | --- |
| B1 | binds | – |
| B2 | – | binds |
| B3 | binds | – |
| B4 | binds | – |
| B5 | binds | – |
| B6 | binds | – |
| B7 | binds | – |
| B8 | binds | – |
